Assay results published in patent US20220193133A1 (CENTURY THERAPEUTICS, published 2022).
Blank lines part the entries; values can stand above or below the binder they belong to.

Legend:
[1] = target: T1, B11 protein (humanized B11 VHH as ELISA antigen); assay: periplasmic extract ELISA, absorbance 450 nm, single point
T1 construct: Panning used B11-Fc; the ELISA legend says only 'B11 protein'

[2] = target: T2, D04 protein (humanized D04 VHH as ELISA antigen); assay: as above
T2 construct: Panning used biotinylated D04-Fc; the ELISA legend says only 'D04 protein'

[3] = target: T3, B11-his tagged VHH (humanized B11); assay: Octet (BLI), anti-idiotype VHH-Fc vs his-tagged VHH; table title prints D04-his, its footnote prints B11-his
T3 construct: also called B11-his protein; B11 his-tagged protein

[4] = target: T4, humanized D04 VHH CAR (hyLYSO_CW_P01_D04) on Nurkat cells or primary T cells; assay: flow cytometry, VHH-Fc on CAR Nurkat cells, 3-fold dilutions 50 to 0.02 nM, anti-Fc APC, %Fc positive cells
T4 construct: also called D04 (p1648); P1650
Excerpt: (§1) […] Fc-fusion protein was detected via anti-Fc APC, and the percentage of cells that were positive for this detection method are shown. […] Controls include (i) no VHH-Fc added and (ii) the anti-VHH cocktail detection reagent (far right). The samples shown in the graphs for each protein appear in the order as specified in the legend.

[5] = target: T5, humanized B11 VHH CAR (hyLYSO_CW_P01_B11) on Nurkat cells; assay: as above
T5 construct: also called B11 (p1649); P1649
Excerpt: as §1

[6] = target: T6, D04-his tagged VHH (humanized D04); assay: Octet (BLI), anti-idiotype VHH-Fc vs his-tagged VHH; table title prints B11-his, paragraph 353 ties these values to D04
T6 construct: also called LysoD04.His; D04 his-tagged protein

human lysozyme = target: T7, human lysozyme (human, UniProt P61626 19-148, biotinylated); assay: flow cytometry, CAR Jurkat cells + 10 ug/mL biotinylated lysozyme, streptavidin-APC, % positive cells
T7 construct: also called human lysozyme protein
T7 sequence (looked up): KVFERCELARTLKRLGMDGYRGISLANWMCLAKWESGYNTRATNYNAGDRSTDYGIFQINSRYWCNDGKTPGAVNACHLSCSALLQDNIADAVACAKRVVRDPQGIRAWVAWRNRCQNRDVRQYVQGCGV

[7] = target: T8, chicken lysozyme (Hen Egg Lysozyme) (chicken, UniProt P00698 19-147, biotinylated); assay: as above
T8 construct: also called HEL; chicken egg white lysozyme
T8 sequence (P00698 19-147): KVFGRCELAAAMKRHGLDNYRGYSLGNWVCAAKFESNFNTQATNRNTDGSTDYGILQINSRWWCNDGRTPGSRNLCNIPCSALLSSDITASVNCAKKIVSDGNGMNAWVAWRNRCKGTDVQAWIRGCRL

binding result [1]: no binding
binding result [2]: binds
B1: huD04_CNTY2_D12 anti-idiotype VHH (periplasmic extract) (VHH)
VHH: EVQLLESGGGLVQPGGSLRLSCAASGSAFSSNAMGWYRQAPGKERELVSAISSGGSTNYADSVKGRFTISRDNSKNTLYLQMNSLRAEDTAVYYCAARNPLTYTALVSNAPSGDYYLFEYRLWGQGTQVTVSS
notes: Screened as periplasmic extract; also called VHH of AMD85

binding result [1]: no binding
binding result [2]: binds
B2: huD04_CNTY2_D02 anti-idiotype VHH (periplasmic extract) (VHH)
VHH: EVQLLESGGGLVQPGGSLRLSCAASGFTFRSYAMGWYRQAPGKEREGVSVISSGGTPSYADSVKGRFTISRDNSKNTLYLQMNSLRAEDTAVYYCDAIMGLVEADYVSTGTYEYTAYAYWGQGTQVTVSS
notes: Screened as periplasmic extract; also called VHH of AMD80

Kd [3]: 515 nM
Response [3]: 0.0566
koff [3]: 0.14 s⁻¹
kon [3]: 273000 M⁻¹ s⁻¹
binding result [4]: no binding (tested: 50 nM)
B3: AMD71 (huB11_CNTY3+4_A02 anti-idiotype VHH IgG1-Fc fusion) (Fc fusion)
chain: EVQLLESGGGLVQPGGSLRLSCAASGRTYTGSAMGWYRQAPGKERELVSAISTGGETYYADSVKGRFTISRDNSKNTLYLQMNSLRAEDTAVYYCAAGYVGLPYTYRPATSRRGYTYWGQGTQVTVSS
notes: not shown: IgG1 Fc

binding result [2]: binds
B4: huD04_CNTY2_F12 anti-idiotype VHH (periplasmic extract) (VHH)
VHH: EVQLLESGGGLVQPGGSLRLSCAASGFTFSSNAMGWYRQAPGKEREFVSSISSGRSTTYADSVKGRFTISRDNSKNTLYLQMNSLRAEDTAVYYCAAHGTKYKWTRARLRSARQKQLETYRYWGQGTQVTVSS
notes: Screened as periplasmic extract; also called VHH of AMD74

binding result [4]: binds
B5: AMD74 (huD04_CNTY2_F12 anti-idiotype VHH IgG1-Fc fusion) (Fc fusion)
chain: EVQLLESGGGLVQPGGSLRLSCAASGFTFSSNAMGWYRQAPGKEREFVSSISSGRSTTYADSVKGRFTISRDNSKNTLYLQMNSLRAEDTAVYYCAAHGTKYKWTRARLRSARQKQLETYRYWGQGTQVTVSS
notes: not shown: IgG1 Fc

binding result [1]: no binding
B6: huD04_CNTY2_D04 anti-idiotype VHH (periplasmic extract) (VHH)
VHH: EVQLLESGGGLVQPGGSLRLSCAASGLTFSGVCMGWFRQAPGKEREGVSAIYSSGSTYYADSVKGRFTISRDNSKNTLYLQMNSLRAEDTAVYYCAADRIPDLGEPCIGTTNLARTYNYWGQGTQVTVSS
notes: Screened as periplasmic extract; also called VHH of AMD81

binding result [5]: no binding (tested: 50 nM)
B7: AMD81 (Fc fusion)
VHH-Fc: EVQLLESGGGLVQPGGSLRLSCAASGLTFSGVCMGWFRQAPGKEREGVSAIYSSGSTYYADSVKGRFTISRDNSKNTLYLQMNSLRAEDTAVYYCAADRIPDLGEPCIGTTNLARTYNYWGQGTQVTVSS
notes: also called huD04_CNTY2_D04 anti-idiotype VHH IgG1-Fc fusion

Response [3]: -0.0301
binding result [5]: no binding (tested: 50 nM)
B8: AMD87 (huD04_CNTY1_D11 anti-idiotype VHH IgG1-Fc fusion) (Fc fusion)
chain: EVQLLESGGGLVQPGGSLRLSCAASGSTFSYYYMGWYRQAPGKERELVSAISSGGSIYYADSVKGRFTISRDNSKNTLYLQMNSLRAEDTAVYYCARRTYYGDEADYWGQGTQVTVSS
notes: not shown: IgG1 Fc

binding result [1]: no binding
B9: huD04_CNTY2_C03 anti-idiotype VHH (periplasmic extract) (VHH)
VHH: EVQLLESGGGLVQPGGSLRLSCAASGLTFSRYAMGWYRQAPGKERELVSAISSRRSTYYADSVKGRFTISRDNSKNTLYLQMNSLRAEDTAVYYCAADYRLTSLERARYASASITYDYWGQGTQVTVSS
notes: Screened as periplasmic extract; also called VHH of AMD78

binding result [2]: binds
B10: huD04_CNTY2_H12 anti-idiotype VHH (periplasmic extract) (VHH)
VHH: EVQLLESGGGLVQPGGSLRLSCAASGSIFSSDVMGWYRQAPGKERELVSAISSGGSTRYADSVKGRFTISRDNSKNTLYLQMNSLRAEDTAVYYCAATMGKSKTNRRNYGTWRYGAYAYWGQGTQVTVSS
notes: Screened as periplasmic extract; also called VHH of ABD72 (AMD72)

binding result [4]: binds
B11: AMD72 (huD04_CNTY2_H12 anti-idiotype VHH IgG1-Fc fusion) (Fc fusion)
chain: EVQLLESGGGLVQPGGSLRLSCAASGSIFSSDVMGWYRQAPGKERELVSAISSGGSTRYADSVKGRFTISRDNSKNTLYLQMNSLRAEDTAVYYCAATMGKSKTNRRNYGTWRYGAYAYWGQGTQVTVSS
notes: also called ABD72; not shown: IgG1 Fc

binding result [5]: no binding (tested: 50 nM)
EC50 (read off the curve) [4]: ~4 nM
B12: AMD69 (huD04_CNTY2_E03 anti-idiotype VHH IgG1-Fc fusion) (Fc fusion)
chain: EVQLLESGGGLVQPGGSLRLSCAASGLTYTGYAMGWYRQAPGKERELVSAISSRSSIYYADSVKGRFTISRDNSKNTLYLQMNSLRAEDTAVYYCAAGRPVALGSWRRTATWSAGLGAEYAYWGQGTQVTVSS
notes: not shown: IgG1 Fc

binding result [1]: no binding
B13: huD04_CNTY2_E03 anti-idiotype VHH (periplasmic extract) (VHH)
VHH: EVQLLESGGGLVQPGGSLRLSCAASGLTYTGYAMGWYRQAPGKERELVSAISSRSSIYYADSVKGRFTISRDNSKNTLYLQMNSLRAEDTAVYYCAAGRPVALGSWRRTATWSAGLGAEYAYWGQGTQVTVSS
notes: Screened as periplasmic extract; also called VHH of AMD69

binding result [4]: no binding (tested: 50 nM)
B14: AMD75 (Fc fusion)
VHH-Fc: EVQLLESGGGLVQPGGSLRLSCAASGFAFSDYVMGWYRQAPGKEREFVSAIRSTTSTYYADSVKGRFTISRDNSKNTLYLQMNSLRAEDTAVYYCAADVWSGYEYDYWGQGTQVTVSS
notes: also called huB11_CNTY1_E11 anti-idiotype VHH IgG1-Fc fusion

binding result [4]: no binding (tested: 50 nM)
B15: AMD76 (Fc fusion)
VHH-Fc: EVQLLESGGGLVQPGGSLRLSCAASGLAFSSYAMGWYRQAPGKEREFVSVISGTGETLYADSVKGRFTISRDNSKNTLYLQMNSLRAEDTAVYYCAADVWSGYEYDYWGQGTQVTVSS
notes: also called huB11_CNTY1_B11 anti-idiotype VHH IgG1-Fc fusion

binding result [5]: no binding (tested: 50 nM)
B16: AMD67 (Fc fusion)
VHH-Fc: EVQLLESGGGLVQPGGSLRLSCAASGRTFSSGAMGWYRQAPGKERELVSAISNRGSTVYADSVKGRFTISRDNSKNTLYLQMNSLRAEDTAVYYCAADRNPSSAGAGVAAYRLIARFNYWGQGTQVTVSS
notes: also called huD04_CNTY2_F09 anti-idiotype VHH IgG1-Fc fusion

Response [3]: -0.0225
Kd [6]: 125 nM
Response [6]: 0.172
koff [6]: 0.0868 s⁻¹
kon [6]: 697000 M⁻¹ s⁻¹
binding result [5]: no binding (tested: 50 nM)
EC50 (read off the curve) [4]: ~6 nM
B17: AMD82 (huD04_CNTY1_B12 anti-idiotype VHH IgG1-Fc fusion) (Fc fusion)
chain: EVQLLESGGGLVQPGGSLRLSCAASGRTSSNYVMGWYRQAPGKEREGVSAITSGGSTYYADSVKGRFTISRDNSKNTLYLQMNSLRAEDTAVYYCAANLYSRTGAYDYWGQGTQVTVSS
notes: not shown: IgG1 Fc

binding result [4]: no binding (tested: 50 nM)
B18: AMD73 (Fc fusion)
VHH-Fc: EVQLLESGGGLVQPGGSLRLSCAASGFTFSSYSIGWYRQAPGKERELVSVISSGGSTYYADSVKGRFTISRDNSKNTLYLQMNSLRAEDTAVYYCAASDWSYSWITYTGTWRLYEYWGQGTQVTVSS
notes: also called huB11_CNTY3+4_A01 anti-idiotype VHH IgG1-Fc fusion

binding result [2]: binds
B19: huD04_CNTY2_F04 anti-idiotype VHH (periplasmic extract) (VHH)
VHH: EVQLLESGGGLVQPGGSLRLSCAASGRTFSSYGMGWYRQAPGKERELVSAISNRGSTYYADSVKGRFTISRDNSKNTLYLQMNSLRAEDTAVYYCAASPARVGVSGHSSSRRSYYGYSYDYWGQGTQVTVSS
notes: Screened as periplasmic extract; also called VHH of AMD70

binding result [4]: binds
B20: AMD70 (Fc fusion)
VHH-Fc: EVQLLESGGGLVQPGGSLRLSCAASGRTFSSYGMGWYRQAPGKERELVSAISNRGSTYYADSVKGRFTISRDNSKNTLYLQMNSLRAEDTAVYYCAASPARVGVSGHSSSRRSYYGYSYDYWGQGTQVTVSS
notes: also called huD04_CNTY2_F04 anti-idiotype VHH IgG1-Fc fusion

binding result (human lysozyme): no binding (tested: 10 ug/mL)
binding result [7]: binds
B21: LYSO_CW_P01_B11 VHH CAR (camelid B11) on Jurkat cells (other, not shown: small tags and cut ends)
chain: QVQLVESGGGLVQAGGSLRLSCAASGGIFSGGRMGWFRQAPGKEREFVAAVITRGGSTYYADSVKGRFTISRDNAKNTVYLQMNSLKPEDTAVYYCAASEVTYDEGRYIGTKSTYDTWGQGTQVTVSS
notes: camelid (not humanized) VHH; also called B11(p242)

binding result (human lysozyme): no binding (tested: 10 ug/mL)
B22: p245 (other)
CAR: QVQLVESGGGLVQAGGSLRLSCAASGGIFSGGRMGWFRQAPGKEREFVAAVITRGGSTYYADSVKGRFTISRDNAKNTVYLQMNSLKPEDTAVYYCAASEVTYDEGHYIGTKSTYDTWGQGTQVTVSS

binding result [1]: no binding
B23: huD04_CNTY2_B06 anti-idiotype VHH (periplasmic extract) (VHH)
VHH: EVQLLESGGGLVQPGGSLRLSCAASGFTFNRYSMGWYRQAPGKERELVSAISSGGSGYYADSVKGRFTISRDNSKNTLYLQMNSLRAEDTAVYYCAIQDYSRIWEYIALDRRRSYYGMDYWGQGTQVTVSS
notes: Screened as periplasmic extract; also called VHH of AMD79

binding result [5]: no binding (tested: 50 nM)
B24: AMD79 (Fc fusion)
VHH-Fc: EVQLLESGGGLVQPGGSLRLSCAASGFTFNRYSMGWYRQAPGKERELVSAISSGGSGYYADSVKGRFTISRDNSKNTLYLQMNSLRAEDTAVYYCAIQDYSRIWEYIALDRRRSYYGMDYWGQGTQVTVSS
notes: also called huD04_CNTY2_B06 anti-idiotype VHH IgG1-Fc fusion
